Assay results as given in PMC9734910.

Target: PDF-2180 S ectodomain trimer (PDF-2180 (bat coronavirus, infects Pipisrellus hesperidus) | not stated)
Assay: cryo-EM structure

Substance: PDF-2180 S ectodomain trimer (domain or fragment)
- stoichiometry N: 3
